Data from the supplement of paper PMC10567573.

B1: DCAF4 (parent)
chain: PGIDRPGMLCSFRIPGAWSCAWSL

Variants of: B1
Test: protein stability index of a GFP-peptide fusion (GPS, HEK-293T) (PSI 1-6); higher = more stable
Conditions: c terminus: a fixed tail appended
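Note: lentivirally expressed fusions sorted by FACS into six bins by GFP to DsRed ratio, PSI derived from sequencing read proportions per bin multiplied by bin number.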

Question: For PRIDRPGMLCSFRIPGAWSCAWSL, which protein stability index is on record?
Answer: 3.78

Question: With PIIDRPGMLCSFRIPGAWSCAWSL as the variant, how does the protein stability index read?
Answer: 2.26

Question: Which protein stability index does the source give for PPIDRPGMLCSFRIPGAWSCAWSL here?
Answer: 1.94

Question: Which protein stability index does the source give for PFIDRPGMLCSFRIPGAWSCAWSL here?
Answer: 1.6

Question: For PDIDRPGMLCSFRIPGAWSCAWSL, which protein stability index is on record?
Answer: 3.96

Question: With PVIDRPGMLCSFRIPGAWSCAWSL as the variant, how does the protein stability index read?
Answer: 1.85

Question: Which protein stability index does the source give for PMIDRPGMLCSFRIPGAWSCAWSL here?
Answer: 3.72

Question: With PKIDRPGMLCSFRIPGAWSCAWSL as the variant, how does the protein stability index read?
Answer: 2.19

Question: With PSIDRPGMLCSFRIPGAWSCAWSL as the variant, how does the protein stability index read?
Answer: 2.55

Question: Which protein stability index does the source give for PWIDRPGMLCSFRIPGAWSCAWSL here?
Answer: 1.83

Question: With PTIDRPGMLCSFRIPGAWSCAWSL as the variant, how does the protein stability index read?
Answer: 2.59

Question: For PYIDRPGMLCSFRIPGAWSCAWSL, which protein stability index is on record?
Answer: 3

Question: With PCIDRPGMLCSFRIPGAWSCAWSL as the variant, how does the protein stability index read?
Answer: 3.1

Question: Which protein stability index does the source give for PLIDRPGMLCSFRIPGAWSCAWSL here?
Answer: 2.54

Question: Which protein stability index does the source give for PHIDRPGMLCSFRIPGAWSCAWSL here?
Answer: 3.15

Question: Which protein stability index does the source give for PQIDRPGMLCSFRIPGAWSCAWSL here?
Answer: 2.39

Question: With PGIDREGMLCSFRIPGAWSCAWSL as the variant, how does the protein stability index read?
Answer: 1.44

Question: For PGIDRTGMLCSFRIPGAWSCAWSL, which protein stability index is on record?
Answer: 2.65

Question: Which protein stability index does the source give for PGIDRVGMLCSFRIPGAWSCAWSL here?
Answer: 2.93

Question: For PGIDRCGMLCSFRIPGAWSCAWSL, which protein stability index is on record?
Answer: 2.65

Question: With PGIDRGGMLCSFRIPGAWSCAWSL as the variant, how does the protein stability index read?
Answer: 3.28

Question: For PGIDRKGMLCSFRIPGAWSCAWSL, which protein stability index is on record?
Answer: 2.83

Question: Which protein stability index does the source give for PGIDRNGMLCSFRIPGAWSCAWSL here?
Answer: 2.76

Question: For PGIDRMGMLCSFRIPGAWSCAWSL, which protein stability index is on record?
Answer: 4.05

Question: With PGIDRAGMLCSFRIPGAWSCAWSL as the variant, how does the protein stability index read?
Answer: 3.48

Question: With PGIDRSGMLCSFRIPGAWSCAWSL as the variant, how does the protein stability index read?
Answer: 2.83

Question: Which protein stability index does the source give for PGIDRFGMLCSFRIPGAWSCAWSL here?
Answer: 3.41

Question: For PGIDRHGMLCSFRIPGAWSCAWSL, which protein stability index is on record?
Answer: 2.66

Question: For PGIDRRGMLCSFRIPGAWSCAWSL, which protein stability index is on record?
Answer: 3.89

Question: With PGIDRYGMLCSFRIPGAWSCAWSL as the variant, how does the protein stability index read?
Answer: 3.44

Question: Which protein stability index does the source give for PGIDRQGMLCSFRIPGAWSCAWSL here?
Answer: 3.62

Question: For PGIDRPGKLCSFRIPGAWSCAWSL, which protein stability index is on record?
Answer: 2.34

Question: For PGIDRPGTLCSFRIPGAWSCAWSL, which protein stability index is on record?
Answer: 3.54

Question: For PGIDRPGGLCSFRIPGAWSCAWSL, which protein stability index is on record?
Answer: 3.31

Question: For PGIDRPGELCSFRIPGAWSCAWSL, which protein stability index is on record?
Answer: 2.42

Question: For PGIDRPGRLCSFRIPGAWSCAWSL, which protein stability index is on record?
Answer: 1.99

Question: With PGIDRPGHLCSFRIPGAWSCAWSL as the variant, how does the protein stability index read?
Answer: 2.83

Question: With PGIDRPGLLCSFRIPGAWSCAWSL as the variant, how does the protein stability index read?
Answer: 3.01

Question: For PGIDRPGSLCSFRIPGAWSCAWSL, which protein stability index is on record?
Answer: 3.62

Question: With PGIDRPGALCSFRIPGAWSCAWSL as the variant, how does the protein stability index read?
Answer: 2.31

Question: For PGIDRPGCLCSFRIPGAWSCAWSL, which protein stability index is on record?
Answer: 2.66

Question: With PGIDRPGNLCSFRIPGAWSCAWSL as the variant, how does the protein stability index read?
Answer: 2.11

Question: For PGIDRPGYLCSFRIPGAWSCAWSL, which protein stability index is on record?
Answer: 1.56

Question: Which protein stability index does the source give for PGIDRPGILCSFRIPGAWSCAWSL here?
Answer: 3

Question: With PGIDRPSMLCSFRIPGAWSCAWSL as the variant, how does the protein stability index read?
Answer: 3.09

Question: Which protein stability index does the source give for PGIDRPVMLCSFRIPGAWSCAWSL here?
Answer: 2.84

Question: With PGIDRPFMLCSFRIPGAWSCAWSL as the variant, how does the protein stability index read?
Answer: 4.52

Question: For PGIDRPTMLCSFRIPGAWSCAWSL, which protein stability index is on record?
Answer: 3.46

Question: For PGIDRPWMLCSFRIPGAWSCAWSL, which protein stability index is on record?
Answer: 2.23

Question: Which protein stability index does the source give for PGIDRPYMLCSFRIPGAWSCAWSL here?
Answer: 2.28

Question: Which protein stability index does the source give for PGIDRPDMLCSFRIPGAWSCAWSL here?
Answer: 2.11

Question: For PGIDRPPMLCSFRIPGAWSCAWSL, which protein stability index is on record?
Answer: 2.83

Question: For PGIDRPNMLCSFRIPGAWSCAWSL, which protein stability index is on record?
Answer: 2.67

Question: With PGIDRPHMLCSFRIPGAWSCAWSL as the variant, how does the protein stability index read?
Answer: 2.09

Question: With PGIDRPAMLCSFRIPGAWSCAWSL as the variant, how does the protein stability index read?
Answer: 2.7

Question: With PGIDRPMMLCSFRIPGAWSCAWSL as the variant, how does the protein stability index read?
Answer: 2.31

Question: With PGIDRPKMLCSFRIPGAWSCAWSL as the variant, how does the protein stability index read?
Answer: 2.7

Question: For PGIDRPQMLCSFRIPGAWSCAWSL, which protein stability index is on record?
Answer: 2.63

Question: Which protein stability index does the source give for PGIDRPIMLCSFRIPGAWSCAWSL here?
Answer: 3.13

Question: For PGIDRPRMLCSFRIPGAWSCAWSL, which protein stability index is on record?
Answer: 2.05

Question: With TGIDRPGMLCSFRIPGAWSCAWSL as the variant, how does the protein stability index read?
Answer: 3.59

Question: Which protein stability index does the source give for CGIDRPGMLCSFRIPGAWSCAWSL here?
Answer: 2.36

Question: Which protein stability index does the source give for MGIDRPGMLCSFRIPGAWSCAWSL here?
Answer: 3.39

Question: For NGIDRPGMLCSFRIPGAWSCAWSL, which protein stability index is on record?
Answer: 3.47

Question: For SGIDRPGMLCSFRIPGAWSCAWSL, which protein stability index is on record?
Answer: 3.17

Question: For YGIDRPGMLCSFRIPGAWSCAWSL, which protein stability index is on record?
Answer: 3.48

Question: With RGIDRPGMLCSFRIPGAWSCAWSL as the variant, how does the protein stability index read?
Answer: 2.46

Question: Which protein stability index does the source give for LGIDRPGMLCSFRIPGAWSCAWSL here?
Answer: 3.17

Question: With KGIDRPGMLCSFRIPGAWSCAWSL as the variant, how does the protein stability index read?
Answer: 1.96

Question: Which protein stability index does the source give for QGIDRPGMLCSFRIPGAWSCAWSL here?
Answer: 3.03

Question: For DGIDRPGMLCSFRIPGAWSCAWSL, which protein stability index is on record?
Answer: 2.31

Question: With AGIDRPGMLCSFRIPGAWSCAWSL as the variant, how does the protein stability index read?
Answer: 1.93

Question: Which protein stability index does the source give for GGIDRPGMLCSFRIPGAWSCAWSL here?
Answer: 3.67

Question: With HGIDRPGMLCSFRIPGAWSCAWSL as the variant, how does the protein stability index read?
Answer: 2.96

Question: For PGIDAPGMLCSFRIPGAWSCAWSL, which protein stability index is on record?
Answer: 2.47

Question: Which protein stability index does the source give for PGIDCPGMLCSFRIPGAWSCAWSL here?
Answer: 2.89

Question: With PGIDYPGMLCSFRIPGAWSCAWSL as the variant, how does the protein stability index read?
Answer: 2.76

Question: With PGIDEPGMLCSFRIPGAWSCAWSL as the variant, how does the protein stability index read?
Answer: 3.11

Question: Which protein stability index does the source give for PGIDFPGMLCSFRIPGAWSCAWSL here?
Answer: 3.57

Question: For PGIDDPGMLCSFRIPGAWSCAWSL, which protein stability index is on record?
Answer: 3.46

Question: For PGIDGPGMLCSFRIPGAWSCAWSL, which protein stability index is on record?
Answer: 2.74

Question: For PGIDPPGMLCSFRIPGAWSCAWSL, which protein stability index is on record?
Answer: 2.75

Question: For PGIDLPGMLCSFRIPGAWSCAWSL, which protein stability index is on record?
Answer: 2.46

Question: Which protein stability index does the source give for PGIDIPGMLCSFRIPGAWSCAWSL here?
Answer: 1.87

Question: With PGIDQPGMLCSFRIPGAWSCAWSL as the variant, how does the protein stability index read?
Answer: 3.37

Question: With PGIDKPGMLCSFRIPGAWSCAWSL as the variant, how does the protein stability index read?
Answer: 2.04

Question: With PGIDMPGMLCSFRIPGAWSCAWSL as the variant, how does the protein stability index read?
Answer: 3.37

Question: Which protein stability index does the source give for PGIDVPGMLCSFRIPGAWSCAWSL here?
Answer: 1.94

Question: With PGIDNPGMLCSFRIPGAWSCAWSL as the variant, how does the protein stability index read?
Answer: 3.74

Question: Which protein stability index does the source give for PGQDRPGMLCSFRIPGAWSCAWSL here?
Answer: 3.25

Question: For PGDDRPGMLCSFRIPGAWSCAWSL, which protein stability index is on record?
Answer: 1.96

Question: Which protein stability index does the source give for PGTDRPGMLCSFRIPGAWSCAWSL here?
Answer: 2.93

Question: With PGWDRPGMLCSFRIPGAWSCAWSL as the variant, how does the protein stability index read?
Answer: 3.75

Question: Which protein stability index does the source give for PGFDRPGMLCSFRIPGAWSCAWSL here?
Answer: 2.26
